Measurements from patent US20230181719A1, “NGR CONJUGATES AND USES THEREOF” (OSPEDALE SAN RAFFAELE S.R.L., priority 2020, published 2023).
Starred links: 1 amine or outer side, 2 acyl side, 3 side chain; linkers in the order of their positions; H or OH if unused. Positions of bridges follow the written chain, without caps; N, C: chain ends. Non-standard residues stand in square brackets, D forms with d. Residues, ends and D or L forms follow the SMILES beside them. No end group written: not given here. βAsp = O=C(O)[C@H](CC(=O)[*:2])N[*:1]

How the values were obtained:
[1] = Peptide deamidation stability upon incubation at 37° C., by mass spectrometry; type: physicochemical; conditions: pH 7.4
Procedure: FIG. 11. The peptide SCNGRCGVRY (SEQ ID NO: 3) has a lower propensity to deamidate than CNGRCGVRY (SEQ ID NO:4) in a physiological buffer at […], but not in ammonium bicarbonate buffer at pH 8.5. A and B) MS analysis of SCNGRCGVRY (SEQ ID NO: 3) and CNGRCGVRY (SEQ ID NO:4) after incubation at 37° C. for the indicated time in 50 mM sodium phosphate buffer, pH 7.4 (PBS) or 0.1 M ammonium bicarbonate buffer, pH 8.5 (Ambic). The values +0, + 1, -17 reported in the plot correspond to the difference between the observed and the expected molecular mass of peptides expressed in daltons. MS analysis was performed using the LTQ-Orbitrap mass spectrometer (Thermo Scientific).
To assess whether the addition of the serine residue to CNGRCG (SEQ ID NO:1) might affect its deamidation propensity inventors synthetized the SCNGRCGVRY (SEQ ID NO: 3) and CNGRCGVRY (SEQ ID NO:4) peptides and studied their stability upon incubation at 37° C. in PBS, pH 7.4, by mass spectrometry.
A similar experiment was then performed with peptides in 0.1 M ammonium bicarbonate, pH 8.5, a condition known to force Asn deamidation (Curnis et al. 2006). […] Furthermore, the succinimide-derivative of S-NGR-TNF, when formed, is more prone to hydrolysis.

[2] = biological target: αvβ3 (Homo sapiens, UniProt P05106+P06756); experiment: Competitive binding of acetyl-CisoDGRCG/streptavidin-peroxidase to integrin-coated microtiterplates; conditions: αvβ3, αvβ5, αvβ6, αvβ8 and α5β1 (all integrins)
Excerpt: To assess whether the isoDGR derivative of S-NGR-TNF and NGR-TNF targeting domains can recognize integrins with similar affinities inventors then analysed the binding of SCisoDGRCGVRY (SEQ ID NO: 17), CisoDGRCGVRY and acetyl-CisoDGRCGVRY to αvβ3, αvβ5, αvβ6 αvβ8 and α5β1 integrins using a competitive binding assay previously described (Curnis et al. 2010). […] As expected […] (SEQ ID NO: 3) and […] […] Considering that human NGR-TNF contains acetylated and non-acetylated forms and that both CNGRC (SEQ ID NO:5) and acetyl-CNGRC can undergo deamidation (Curnis et al. 2010), inventors can conclude that the isoDGR derivative of S-NGR-TNF, if formed, behave in a manner similar to those of the isoDGR derivatives of NGR-TNF in terms of integrin recognition.

[3] = test system: L-M cells; experiment: LM-cells cytolytic assay (MTT); type: cell-based; conditions: actinomycin D, 20 h, murine proteins
Excerpt: FIG. 8. Biochemical and biological characterization of murine S-NGR-TNF and NGR-TNF. A) SDS-PAGE under reducing (βMe +) and non-reducing conditions (βMe -) of murine S-NGR-TNF, NGR-TNF and TNF. Arrows: bands corresponding to monomeric subunits (mon) and reducible dimers (dim). B) Representative mass spectra of murine NGR-TNF, TNF and S-NGR-TNF as determined by a Q Exactive HF mass spectrometer. Expected average masses are shown. C) Cytotoxic activity of TNF, NGR-TNF and S-NGR-TNF against L-M cells. L-M cells were incubated in DMEM medium supplemented with 2 mM glutamine, 100 U/ml penicillin, 100 µg/ml streptomycin, 0.25 µg/ml amphotericin-B, 10% fetal bovine serum, 2 µg/ml actinomycin D and TNF, NGR-TNF or S-NGR-TNF at the indicated doses (20 h at 37° C., 5% CO2). Cell viability was quantified by standard 3-(4,5-dimethylthiazol-2-yl)-2,5-diphenyltetrazolium bromide (MTT) assay. D) Binding of TNF, NGR-TNF and S-NGR-TNF to sTNF-R1 (Etanercept). Microtiterplates were precoated with or without the indicated amount of sTNF-R1 (for 16 h), washed with PBS, blocked with PBS containing 3% milk, 1% BSA (binding buffer, 1 h) and incubated with the indicated amounts of TNF, NGR-TNF or S-NGR-TNF diluted in binding buffer (for 1.5 h). The binding of each protein to sTNF-R1 was then detected using a polyclonal anti-murine TNF (IP301, 5 µg/ml in binding buffer, 1 h) followed by a polyclonal goat anti-rabbit antibody conjugated with horseradish peroxidase (1:1000 in binding buffer, 1 h) and o-phenylendiammine as chromogenic substrate.
To assess whether the addition of a serine residue to NGR-TNF affects its capability to recognize the TNF receptors and, consequently, its biological activity, inventors then analyzed the cytotoxic activity of TNF, NGR-TNF and S-NGR-TNF in the LM-cells cytolytic assay.

[4] = biological target: T1, recombinant human histidine-tagged CD13 (human, UniProt P15144 69-967, limits assumed); experiment: CD13 enzyme kinetics inhibition, 50 mM Tris-HCl buffer, pH 7.4
T1 construct: Histidine tag present; also called aminopeptidase N

[5] = biological target: T1, recombinant human histidine-tagged CD13; experiment: CD13 enzyme kinetics inhibition, 60 mM potassium phosphate buffer, pH 7.4
Excerpt: FIG. 10. The peptide […] (SEQ ID NO: 3) inhibits CD13 enzymatic activity more efficiently than […] (SEQ ID NO:4) and acetylated-[…]. A) Steady state kinetic analysis of CD13 in the presence of various amounts of L-alanine p-nitroanilide substrate and […] (SEQ ID NO: 3), […] (SEQ ID NO:4), or acetylated-[…] (ac-[…]) (SEQ ID NO:42). A representative plot of 3-4 independent experiments, showing the initial velocity (V₀) versus substrate concentration (mean ± SE of four technical replicates), is shown. The assays were performed with recombinant human histidine-tagged CD13 (200-300 ng/ml) in 60 mM potassium phosphate buffer, pH 7.4, at room temperature. The kinetic of p-nitroanilide formation was monitored spectrophotometrically (A405 nm) for 5-10 min. The inhibitory constant (Ki) reported in each plot is the result of the 3-4 independent experiments (mean ± SE). B) Double reciprocal plots of the experiments reported in panel A.
Each experiment was performed with 4 technical replicates

[6] = biological target: T2, αvβ5 integrin (UniProt P06756 31-992; P18084 24-719, limits assumed); experiment: competitive binding assay, integrin-coated plates; competitor probe acetyl-CisoDGRCG/streptavidin-peroxidase
T2 construct: Coated on microtiter plates
Excerpt: (§1) To assess whether the isoDGR derivative of S-NGR-TNF and NGR-TNF targeting domains can recognize integrins with similar affinities inventors then analysed the binding of SCiso[…] (SEQ ID NO: 17), Ciso[…] and acetyl-Ciso[…] to αvβ3, αvβ5, αvβ6 αvβ8 and α5β1 integrins using a competitive binding assay previously described (Curnis et al. 2010). […] Considering that human NGR-TNF contains acetylated and non-acetylated forms and that both CNGRC (SEQ ID NO:5) and acetyl-CNGRC can undergo deamidation (Curnis et al. 2010), inventors can conclude that the isoDGR derivative of S-NGR-TNF, if formed, behave in a manner similar to those of the isoDGR derivatives of NGR-TNF in terms of integrin recognition.
(§2) a) Competitive binding of acetyl-CisoDGRCG/streptavidin-peroxidase to integrins. The binding assay was performed using integrin-coated microtiterplates as previously described (Curnis et al. 2013). b) n, number of independent experiments, each in duplicate.

[7] = biological target: T3, αvβ6 integrin (UniProt P06756 31-992; P18564 22-707, limits assumed); experiment: as above
T3 construct: Coated on microtiter plates
Excerpt: as §1, §2

[8] = biological target: T4, αvβ8 integrin (UniProt P06756 31-992; P26012 43-684, limits assumed); experiment: as above
T4 construct: Coated on microtiter plates
Excerpt: as §1, §2

[9] = biological target: T5, α5β1 integrin (UniProt P08648 42-995; P05556 21-728, limits assumed); experiment: as above
T5 construct: Coated on microtiter plates
Excerpt: as §1, §2

[10] = biological target: T6, αvβ3 integrin (UniProt P06756 31-992; P05106 27-718, limits assumed); experiment: as above
T6 construct: Coated on microtiter plates
Excerpt: as §1, §2

CC(C)[C@H](NC(=O)CNC(=O)[C@@H]1CSSC[C@H](N)C(=O)N[C@@H](CC(N)=O)C(=O)NCC(=O)N[C@@H](CCCNC(=N)N)C(=O)N1)C(=O)N[C@@H](CCCNC(=N)N)C(=O)N[C@@H](Cc1ccc(O)cc1)C(=O)O [CNGRCGVRY, CNGRCGVRY (SEQ ID NO:4), reference compound] (H-CNGRCGVRY-OH; disulfide 1-5 (inferred); N-terminus and C-terminus assumed)
-17 Da form (succinimide intermediate of deamidation) ([1]; after 2 h at 37° C. in PBS): observed
+1 Da deamidation product (DGR/isoDGR) ([1]; after 32 h at 37° C. in PBS): observed
-17 Da form still present ([1]; after 32 h at 37° C. in PBS): a large amount of the -17 Da form was still present

CC(C)[C@H](NC(=O)CNC(=O)[C@@H]1CSSC[C@H](NC(=O)[C@@H](N)CO)C(=O)N[C@@H](CC(=O)O)C(=O)NCC(=O)N[C@@H](CCCNC(=N)N)C(=O)N1)C(=O)N[C@@H](CCCNC(=N)N)C(=O)N[C@@H](Cc1ccc(O)cc1)C(=O)O [SCDGRCGVRY, SCDGRCGVRY (SEQ ID NO:22)] (H-SCDGRCGVRY-OH; disulfide 2-6; N-terminus and C-terminus assumed)
affinity for integrins [2]: no or very low affinity

TNF: Murine tumor necrosis factor-α (SEQ ID NO: 15) [reference compound]
EC50 cytotoxic activity [3]: very similar

B1: CNGRCGVRY peptide (peptide)
peptide: CNGRCGVRY
modifications: disulfide 1-5
notes: Synthetic peptide corresponding to the N-terminal region of human NGR-TNF
Ki [4]: 35.6 µM
Ki [5]: 76.5 µM

B2: SCNGRCGVRY peptide (peptide)
peptide: SCNGRCGVRY
modifications: disulfide 2-6
notes: Synthetic peptide corresponding to the N-terminal region of human S-NGR-TNF
Ki [4]: 6.8 µM
Ki [5]: 25 µM
Ki [6]: > 10 µM
Ki [7]: > 10 µM
Ki [8]: > 10 µM
Ki [9]: > 10 µM
Ki [10]: > 10 µM

SCDGRCGVRY [SCDGRCGVRY peptide]
Ki [6]: 0.779 µM
Ki [7]: 5.5 µM
Ki [8]: 21.4 µM
Ki [9]: 4.79 µM
Ki [10]: 3.34 µM

SC[βAsp]GRCGVRY (disulfide 2-6) [SCisoDGRCGVRY peptide]
Ki [6]: 0.077 µM
Ki [7]: 0.025 µM
Ki [8]: 0.156 µM
Ki [9]: 0.011 µM
Ki [10]: 0.017 µM

C[βAsp]GRCGVRY (disulfide 1-5) [CisoDGRCGVRY peptide]
Ki [6]: 0.391 µM
Ki [7]: 0.131 µM
Ki [8]: 0.554 µM
Ki [9]: 0.075 µM
Ki [10]: 0.011 µM

Ac-C[βAsp]GRCGVRY (disulfide 1-5) [acetyl-CisoDGRCGVRY peptide]
Ki [6]: 0.021 µM
Ki [7]: 0.005 µM
Ki [8]: 0.018 µM
Ki [9]: 0.004 µM
Ki [10]: 0.003 µM

Ac-CNGRCGVRY (disulfide 1-5) [acetylated-CNGRCGVRY peptide]
Ki [4]: 38.1 µM
Ki [5]: 50.7 µM
